The values below come from publication PMC12718106.

Test [1] has as its target recombinant Ara h 1 protein with N-terminal His-tag (peanut (Arachis hypogaea)). The test can be described thus: native gel or EMSA; native-PAGE of the purified allergen, nondenaturing; oligomeric state from the estimated molecular mass (Fig. S1).
In test [2] the target is natural Ara h 1 protein (peanut (Arachis hypogaea)). The test is described as above.

Consider “recombinant Ara h 1 protein with N-terminal His-tag (natural protein)”, for which the stoichiometry N (usually a count of units in the complex or per binding partner) in test [1] is 3.
Take “natural Ara h 1 protein (natural protein)”: the stoichiometry N in test [2] is 3.
